Measurements published in article PMC6048692 (Chemical Science, 2018).

Legend:
[1] = biological target: the molecule itself; assay: MoTag2 comet formation, MT plus end tracking
SEC = biological target: the molecule itself; assay: SEC

Protein: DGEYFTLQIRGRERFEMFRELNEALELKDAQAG (domain or fragment) [p53 tetramerization domain (TD), p53 324-356, fused with MoTag2]
- stoichiometry N [1]: 4

B1: DsRed fused to MoTag2 (natural protein)
chain: MRSSKNVIKEFMRFKVRMEGTVNGHEFEIEGEGEGRPYEGHNTVKLKVTKGGPLPFAWDILSPQFQYGSKVYVKHPADIPDYKKLSFPEGFKWERVMNFEDGGVVTVTQDSSLQDGCFIYKVKFIGVNFPSDGPVMQKKTMGWEASTERLYPRDGVLKGEIHKALKLKDGGHYLVEFKSIYMAKKPVQLPGYYYVDSKLDITSHNEDYTIVEQYERTEGRHHLFL
- stoichiometry N (SEC): 4
